Series [1] deals with the molecule itself. Description: SAXS; SEC in line with SAXS, SWING beamline at SOLEIL, SEC-3 300 Å Agilent column, 15°C; 2.5 mg/ml TRIM25 RBCC, 6 mg/ml TRIM32 RBCC injected.
The next series concerns the target ubiquitin (bovine, UniProt P0CG53 1-76, isopeptide-linked to UBE2D1). Description: crystal structure; TRIM25 RING domain (8 mg/ml) mixed with isopeptide-linked UBE2D1-Ub (10 mg/ml) at a 1:1 molar ratio; 100 mM Tris pH 8.5, 10% PEG 20,000, 18°C; 2.34 Å. Conditions: both partners purified.
Series [2] deals with the molecule itself. Description: SAXS; batch SAXS, Diamond Light Source beamline B21; at least three dilutions of each construct; concentrations as in Table 2.

B1: TRIM25 RBCC (1–433) (domain or fragment, UniProt Q14258 1-433, looked up)
chain: MAELCPLAEELSCSICLEPFKEPVTTPCGHNFCGSCLNETWAVQGSPYLCPQCRAVYQARPQLHKNTVLCNVVEQFLQADLAREPPADVWTPPARASAPSPNAQVACDHCLKEAAVKTCLVCMASFCQEHLQPHFDSPAFQDHPLQPPVRDLLRRKCSQHNRLREFFCPEHSECICHICLVEHKTCSPASLSQASADLEATLRHKLTVMYSQINGASRALDDVRNRQQDVRMTANRKVEQLQQEYTEMKALLDASETTSTRKIKEEEKRVNSKFDTIYQILLKKKSEIQTLKEEIEQSLTKRDEFEFLEKASKLRGISTKPVYIPEVELNHKLIKGIHQSTIDLKNELKQCIGRLQEPTPSSGDPGEHDPASTHKSTRPVKKVSKEEKKSKKPPPVPALPSKLPTFGAPEQLVDLKQAGLEAAAKATSSHPNS
Usually stoichiometry N stands for a count of units in the complex or per binding partner. As to B1, the “stoichiometry N” value in series [1] was 2.

B2: TRIM25 RING domain (1–82) (domain or fragment, UniProt Q14258 1-82, looked up)
chain: MAELCPLAEELSCSICLEPFKEPVTTPCGHNFCGSCLNETWAVQGSPYLCPQCRAVYQARPQLHKNTVLCNVVEQFLQADLA
For B2, the binding result in the series with ubiquitin is recorded as “binds”.

B3: TRIM32 RING/B-box2 (1–140) (domain or fragment, UniProt Q13049 1-140, looked up)
chain: MAAAAASHLNLDALREVLECPICMESFTEEQLRPKLLHCGHTICRQCLEKLLASSINGVRCPFCSKITRITSLTQLTDNLTVLKIIDTAGLSEAVGLLMCRSCGRRLPRQFCRSCGLVLCEPCREADHQPPGHCTLPVKE
As for B3, the “stoichiometry N” value in series [2] is 2.

B4: TRIM32 RBCC (1–354) (domain or fragment, UniProt Q13049 1-354, looked up)
chain: MAAAAASHLNLDALREVLECPICMESFTEEQLRPKLLHCGHTICRQCLEKLLASSINGVRCPFCSKITRITSLTQLTDNLTVLKIIDTAGLSEAVGLLMCRSCGRRLPRQFCRSCGLVLCEPCREADHQPPGHCTLPVKEAAEERRRDFGEKLTRLRELMGELQRRKAALEGVSKDLQARYKAVLQEYGHEERRVQDELARSRKFFTGSLAEVEKSNSQVVEEQSYLLNIAEVQAVSRCDYFLAKIKQADVALLEETADEEEPELTASLPRELTLQDVELLKVGHVGPLQIGQAVKKPRTVNVEDSWAMEATASAASTSVTFREMDMSPEEVVASPRASPAKQRGPEAASNIQQ
For B4, in series [1], the “stoichiometry N” value came out at 4.

The record behind these values is paper PMC4864278 (The EMBO Journal, 2016).
